Numbering of substitutions follows the chain as printed. Names and notes keep the numbering of the source.
How the values were obtained:
[1] = target: T1, TRAF4 (Homo sapiens, UniProt Q9BUZ4); test: isothermal titration calorimetry; assay type: binding
T1 construct: TRAF domain (TRAF-6His), homotrimer
T1 sequence (Q9BUZ4 283-470): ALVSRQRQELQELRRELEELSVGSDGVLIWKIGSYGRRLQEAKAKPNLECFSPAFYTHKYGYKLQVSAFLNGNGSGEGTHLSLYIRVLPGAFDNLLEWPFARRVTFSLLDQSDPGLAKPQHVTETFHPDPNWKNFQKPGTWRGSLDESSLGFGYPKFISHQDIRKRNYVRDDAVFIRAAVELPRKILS

[2] = target: the molecule itself; test: native MS; ESI-TOF in native condition, TRAF-6His alone (no lipid), 20 pmol/µL protein in ammonium bicarbonate buffer (100 mM NH4HCO3 pH 8)
[3] = target: the molecule itself; test: SEC + other: dynamic light scattering; gel filtration of 1 ml containing 1 mg WT or 0.3 mg K345E TRAF domain; DLS with 20 µM protein at 25°C in 10 mM Tris pH 7.5, 150 mM NaCl

With `O=P(O)(O)O[C@H]1[C@H](O)[C@@H](OP(=O)(O)O)[C@H](OP(=O)(O)O)[C@@H](OP(=O)(O)O)[C@H]1O` [IP4, inositol-(1,3,4,5)-tetrakisphosphate] the Kd [1] was 5.68 µM.

B1: TRAF domain of human TRAF4 fused to a 6His tag (TRAF-6His) (domain or fragment, UniProt Q9BUZ4 283-470, looked up)
chain: T1 sequence (Q9BUZ4 283-470)
notes: Tumor necrosis factor receptor-associated factor 4 (TRAF4), human, TRAF domain; the crystal structure includes residues 283-470 of the TRAF domain; Printed monomer mass 22.6 kDa; also called TRAF4-TRAF domain; WT TRAF domain
B1 was tested, and the “stoichiometry N” value [2] was 3.

B2: K345E mutant TRAF domain of TRAF4 (domain or fragment, human, UniProt Q9BUZ4 283-470, looked up)
chain: T1 sequence (Q9BUZ4 283-470) with K63E
notes: Tumor necrosis factor receptor-associated factor 4 (TRAF4), human, TRAF domain with K345E; same limits as the wild-type TRAF domain, whose structure includes residues 283-470; also called TRAF-K345E; TRAF-6HIS K345E; source: E. coli, purified
In the case of B2, the “stoichiometry N” value [3] is reported as 3.

— article PMC3848981 (PLoS Biology, 2013)
